The record followed here is paper PMC12905498 (2026).

Broadly, the Kd is the free concentration of one partner at which half of the binding sites on the other are occupied at equilibrium, for simple one-to-one binding.

The target in assay [1] is T1, Plasmodium falciparum HAP2 domain 3 (PfHAP2 D3 HisAvi), deglycosylated (P. falciparum, deglycosylated with PNGase F).
T1 chain: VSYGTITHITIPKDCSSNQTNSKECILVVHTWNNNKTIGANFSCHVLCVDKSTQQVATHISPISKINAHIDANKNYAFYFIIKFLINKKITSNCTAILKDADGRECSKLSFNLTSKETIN
Kind of assay: BLI; single experiment. A general note: In BLI a coated tip is dipped into the sample, and binding shifts an interference pattern.

Assay [2] concerns the target T2, Plasmodium vivax HAP2 domain 3 (P. vivax).
T2 chain: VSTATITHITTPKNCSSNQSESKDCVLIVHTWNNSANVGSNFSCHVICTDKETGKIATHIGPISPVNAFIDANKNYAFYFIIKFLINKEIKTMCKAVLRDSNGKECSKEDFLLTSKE
Briefly: BLI.

Assay [3] addresses T3, Plasmodium berghei HAP2 domain 3 (P. berghei).
T3 chain: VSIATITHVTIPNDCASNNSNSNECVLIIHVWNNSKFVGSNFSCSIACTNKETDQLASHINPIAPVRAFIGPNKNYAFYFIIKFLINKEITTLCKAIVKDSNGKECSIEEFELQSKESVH
Briefly: BLI.

Assay [4] deals with T1, Plasmodium falciparum HAP2 domain 3 …. Briefly: BLI.

B1: WNbFc 333 (nanobody WNb 333 fused to hinge and Fc of human IgG1) (Fc fusion)
chain: QVQLQESGGGSVQPGGSLRLSCAASGFTLEDYAIGWFRQAPGKGREGISCISSTDGSTHYADSAKGRFTISRDDAKNTAYLQMNSLKVEDTDVYYCAALSQEHMITVQRMCAVPAAHYWGRGTQVTVSS
With B1, the Kd in assay [1] was 9.5 nM; in assay [2], 2250 nM; in assay [3] it was 3650 nM; in assay [4] it was 10.5 nM.

B2: WNbFc 335 (nanobody WNb 335 fused to hinge and Fc of human IgG1) (Fc fusion)
chain: QVQLQESGGGLVQPGGSLRLSCEASASGTIVALGTMAWYRQAPGNQRELVATITEESSTYYADSVKGRCTISRDNARNTMYLRLNSLKPEDTAVYYCNLANFWGQGTQVTVSS
As to B2, the Kd in assay [1] came out at 35.2 nM; in assay [4] it was 38.8 nM.

B3: anti-PbHAP2 D3 mAb 1.12 (variable regions in AbVec-hIgG1 and AbVec-IgKappa) (antibody, V domains shown)
VH: EFQLLQSGPELVKPGASVKISCKASDYSLSDYNMNWVRQRSGKSLEWIGVINPNHGTTHYNQKFKGKATLTVDQSSSTAYMQLTSLTSEDSAVYYCASPIHYGNHVPFDYWGQGTTVTVSS
VL: DIQMTQTTSSLSASLGDRVTISCRTGQDISNYLNWYQQKPDGTVKLLIYFTSRLHSGVPSRFSGSGSGTDYSLTISNLEQEDIATYFCQQGITLPWTFGGGTKLEIK
Consider B3, for which, in assay [3], the Kd worked out at 5.1 nM.

B4: WNbFc 334 (nanobody WNb 334 fused to hinge and Fc of human IgG1) (Fc fusion)
chain: QVQLQESGGGLVQPGGSLRLSCAASGFTLDDYAIGWFRQDPGKGREGVSCISLSDGSTYYADAVTGRFTISRDNAKDTVYLQMNSLKPEDTAVYYCAALSQKQMTTVQAMCAVPIANYWGQGTQVTVSS
Regarding B4, the figures for the Kd in assay [1], in assay [3] and in assay [4] were 19.7 nM, 1440 nM and 22.2 nM, respectively.

B5: anti-PbHAP2 D3 mAb 6.14 (variable regions in AbVec-hIgG1 and AbVec-IgKappa) (antibody, V domains shown)
VH: EVQLVESGGGLVKPGGSLKLSCAASEFTFSDYGMHWVRQAPEKGLEWVASISSGSNSIYYSDTVKGRFTISRDNAKSILFLQMTSLRSEDTAMYYCSREAYFAMDYWGQGTSVTVSS
VL: DIQMTQSPSSLSAILGGKVTITCKASQDIHKYIAWYQHKPGKGPRLLIYYTSTLQPGIPSRFSGSGSGRDYSFSISNLEPEDVATYFCLQYDNLYTFGGGTKVEIE
B5 displayed a Kd in assay [3] of 12.1 nM.
